Reference: patent US20260226138A1, “COMBINATION TUMOR THERAPY WITH THROMBOSIS INITIATION AND PLATELET RECRUITMENT” (Wisconsin Alumni Research Foundation, priority 2022, published 2026)

How the values were obtained:
[1] = target: integrin receptors on the angiogenic blood vessels in the tumor site; experiment: cell-based or functional assay
[2] = test system: CT26 tumor-bearing mice; experiment: Coagulation initiation after intratumoral injection, CT26 tumors; format: in vivo
Description: (§1) The coagulation initiation capability of tTF-RGD was investigated by treating CT26 tumor-bearing mice with 1.25 mg/kg of BSA, tTF, and tTF-RGD via intratumoral injection. Twenty-four hours later, the tumors were collected and subjected to H&E staining. To characterize the coagulation triggered by a lower dose of the tTF-RGD, 0.4 mg/kg of BSA, tTF, and tTF-RGD were administered into CT26 tumor-bearing mice via p.t. injection. Furthermore, mice bearing CT26 tumors were also treated with BSA, tTF and tTF-RGD (1.25 mg/kg) via i.v. injection every other day for 3 times in total. Twenty-four hours post injection of the last dose, the tumors and other major organs were collected and subjected to H&E staining.

[3] = test system: CT26 tumor-bearing mice; experiment: Coagulation after p.t. injection of lower dose, CT26 tumors; format: in vivo; details: 0.4 mg/kg
Description: as §1

[4] = test system: CT26 tumors; experiment: Tumor coagulation by Cy5.5-labeled fibrinogen accumulation (IVIS); format: in vivo, mice
Description: To assess the tumor vasculature-coagulation triggered by tTF-RGD, fibrinogen was labeled with sulfo-Cy5.5-NHS ester and dialyzed against PBS to remove unreacted dyes. BSA, tTF or tTF-RGD were injected at the dose of 1.25 mg/kg via i.v. route to mice bearing CT26 tumors, followed by i.v. injection of 1 nmol of fibrinogen. […] At 24 h, the mice were euthanized, and tumors were collected and visualized ex vivo.

[5] = test system: TM00096 human breast tumor PDX; experiment: Coagulation in PDX tumors, H&E staining; format: in vivo, mice; details: i.v. injection with PM-NP, 24 h
Description: Establishment of the PDX model: To establish the PDX model, TM00096 tumor samples were first propagated on Rag2-II2rg double knockout immunodeficient mice (R2G2® mice, 6-8 weeks, female) and then passaged to nude mice (6-8 weeks, female). Briefly, tumor tissues from R2G2® mice with TM00096 tumors were cut into small pieces, dispersed in the 1:1 mixture of DMEM medium and Matrigel® supplemented with FBS and antibiotics. The tiny tumor tissues were mixed well and placed on ice packs before being injected into the right flank of the nude mice using an 18-gauge needle (100 μL/mouse).
Next, it was determined if tTF-RGD can recruit PM-NP to tumor sites. To validate the translational potential of our treatment strategy, a clinically relevant PDX mouse model was established (FIG. 7C). TM00096 human breast tumor tissues were implanted on the flank of the immunodeficient mice. To affirm that systemic injection of tTF-RGD can initiate the tumor-selective coagulation on the PDX model, tTF+PM-NP or tTF-RGD+PM-NP were administered to the mice via i.v. injection as described above in the CT26-bearing mice model. Twenty-four hours later, the PDX tumors were collected and subjected to H&E staining. […] In order to visualize the tumor-selective accumulation of PM-NP, DiR dyes were encapsulated into NPs, which were further coated with platelet membranes. […]

[6] = test system: CT26 tumors; experiment: Recruitment of P-aPD-1 to tumor, i.v. injected protein (systemic strategy); format: in vivo, mice
Description: (§2) Recruitment of P-aPD-1 by tTF-RGD treatment: The recruitment of P-aPD-1 to tumor sites by tTF-RGD-initiated coagulation was studied using IVIS. P-aPD-1 was reacted with sulfo-Cy5.5-NHS ester at room temperature for 1 h and washed three times with PBS to remove unreacted dyes. For the local treating strategy, BSA, tTF, and tTF-RGD were given at the dose of 0.4 mg/kg via p.t. injection to mice bearing CT26 tumors, followed by i.v. injection of approximately 1×10^8 P-aPD-1 (aPD-1:1 mg/kg). For the systemic treatment strategy, BSA, tTF, and tTF-RGD were given at the dose 1.25 mg/kg via i.v. injection to mice bearing CT26 tumors, followed by i.v. injection of approximately 1×10^8 P-aPD-1 (aPD-1:1 mg/kg). […] At 24 h, the mice were euthanized, and tumors were collected and visualized ex vivo.

[7] = test system: FX (proteolytic activation of FX by FVIIa); experiment: FX activation assay; format: biochemical; details: in the presence of factor VII (a) and Ca2+ ions
Description: The FX activation activity was tested using a modified procedure based on a previous report in the art. Briefly, to each well of a black 96-well plate was added 100 μL of BSA, tTF, and tTF-RGD with different concentrations in Tris-buffered saline containing 0.1% BSA. […] After 5 min of incubation at room temperature, FX (Haematologic Technologies, Inc.) was added to reach a final concentration of 30 nM and reacted for an additional 5 min. The reaction was quenched by addition of 20 μL of 100 mmol/L EDTA solution before 10 μL of 6-amino-1-naphthalenesulfonamide-based (ANSN) fluorogenic substrate (10 mM) (Haematologic Technologies, Inc.) was added to the mixture. Three minutes later, the fluorescence intensities were measured with a microplate reader (excitation=352 nm, emission=470 nm).

[8] = test system: PDX breast tumors; experiment: Recruitment of DiR-loaded PM-NP to PDX tumor (IVIS); format: in vivo, mice; details: ex vivo, 24 h, i.v. 1.25 mg/kg
Description: Recruitment of PM-NP by tTF-RGD-triggered coagulation: The recruitment of PM-NP to tumor sites by tTF-RGD-initiated coagulation was studied using IVIS. NPs were loaded with DiR and coated with platelet membranes. The PM-NP was washed three times with PBS to remove unreacted dyes. tTF or tTF-RGD was given at the dose of 1.25 mg/kg via i.v. injection to mice bearing PDX breast tumors. One hour later, 2 mg of NPs and PM-NPs were administered via i.v. injection. […] At 24 h, the mice were euthanized, and tumors were collected and visualized ex vivo.

[9] = test system: CT26 tumor-bearing mice; experiment: Coagulation after three i.v. doses, H&E of tumors and major organs; format: in vivo
Description: as §1

[10] = test system: CT26 subcutaneous tumor; experiment: Anti-tumor efficacy, subcutaneous CT26 model, local treating strategy; format: in vivo, Balb/C mice; details: tTF or tTF-RGD p.t. 0.4 mg/kg, aPD-1 1 mg/kg i.v., 3 doses
Description: (§3) Anti-tumor efficacy of tTF-RGD+P-aPD-1: To establish a subcutaneous CT26 colon cancer model, Balb/C mice (6-8 weeks, male) were subcutaneously inoculated with 1×10^6 CT26 cells on the right flank. When the tumor volume reached100-150 mm^3, the mice were received different treatments, including saline, aPD-1, tTF-RGD, P-aPD-1, tTF+P-aPD-1 and tTF-RGD+P-aPD-1. For the local treating strategy, tTF or tTF-RGD (0.4 mg/kg) was firstly given by p.t. injection. Half an hour later, P-aPD-1 was administered via i.v. injection at the dose of 1 mg/kg. The treatment was conducted every other day for 3 times in total. For the systemic treating strategy, tTF or tTF-RGD (1.25 mg/kg) was first given by i.v. injection. One hour later, P-aPD-1 was administered via i.v. injection at the dose of 0.3 mg/kg. The treatment was conducted every other day for 3 times in total. The antibodies used in other treatment groups are also given at an equivalent dose. The tumor growth (calculated as: length×width^2×0.5) and body weight were monitored every other day. Mice were euthanized once the tumor volume exceeded 2 cm^3.

[11] = test system: CT26 subcutaneous tumor; experiment: Anti-tumor efficacy, subcutaneous CT26 model, systemic treating strategy; format: in vivo, Balb/C mice; details: tTF or tTF-RGD i.v. 1.25 mg/kg, aPD-1 0.3 mg/kg i.v., 3 doses
Description: as §3

[12] = test system: CT26 tumors; experiment: Recruitment of P-aPD-1 to tumor, p.t. injected protein (local strategy); format: in vivo, mice
Description: as §2

[13] = test system: CT26 tumors; design: species or system mice; details: mouse, in vivo, iv, 1.25 mg/kg
Description: Tumor vasculature-targeting and coagulation initiating ability tTF-RGD: The tumor vasculature-targeting ability of tTF-RGD was investigated using IVIS. Briefly, tTF and tTF-RGD were labeled with sulfo-Cy5.5-NHS ester and dialyzed against PBS at 4° C. to remove unreacted dyes. Balb/C mice (6-8 weeks, male) were inoculated with 1×10^6 CT26 cells. When the tumor volumes reached 100-150 mm^3 (calculated as length×width^2×0.5), Cy5.5-labeled tTF or tTF-RGD were injected at the dose of 1.25 mg/kg via i.v. route to mice bearing CT26 tumors. […] At 24 h, the mice were euthanized, and tumors were collected and visualized ex vivo. The fluorescence was analyzed using Living Image Software v.4.3.1 (Perkin Elmer).

truncated tissue factor-Arg-Gly-Asp (RGD) fusion protein (tTF-RGD) (from UniProt P13726 33-250)
mean fluorescence intensity (MFI) of tumor tissues ex vivo, 24 h after i.v. injection of Cy5.5-labeled protein, against the tTF group [1]: 1.62 fold

B1: tTF-RGD: fused protein of truncated tissue factor (extracellular domain of TF) and RGD motif; SEQ ID NO: 9 (protein)
chain: SGTTNTVAAYNLTWKSTNFKTILEWEPKPVNQVYTVQISTKSGDWKSKCFYTTDTECDLTDEIVKDVKQTYLARVFSYPAGNVESTGSAGEPLYENSPEFTPYLETNLGQPTIQSFEQVGTKVNVTVEDERTLVRRNNTFLSLRDVFGKDLIYTLYYWKSSSSGKKTAKTNTNEFLIDVDKGENYCFSVQAVIPSRTVNRKSTDSPVECMGQEKGEFRRGD
hemorrhage and thrombus formation in tumors ([2]; 1.25 mg/kg, data not shown): significant hemorrhage and thrombus formation
coagulation in tumors ([2]; 24 h post-injection): severe coagulation
coagulation / hemorrhage in tumors [3]: effectively triggered obvious coagulation without severe hemorrhage
accumulation of Cy5.5-fibrinogen in tumors ([4]; 24 h post i.v. injections, protein 1.25 mg/kg): strong signals
MFI of Cy5.5-fibrinogen in tumors, increase compared with tTF group ([4]; ex vivo, 24 h, i.v. 1.25 mg/kg): 2.37 fold
coagulation in PDX tumor tissues (H&E) [5]: could induce coagulation in PDX tumor tissues without severe hemorrhage
accumulation of P-aPD-1 in tumor tissues, increase versus tTF group ([6]; ex vivo, 24 h, protein i.v. 1.25 mg/kg): 1.89 fold
Rhodamine B-labeled P-aPD-1 fluorescence in resected tumors compared to BSA and tTF ([6]; i.v. injection): More fluorescence signals
distribution of Cy5.5-labeled P-aPD-1 at tumor sites (imaging) compared to tTF and BSA ([6]; protein i.v. 1.25 mg/kg then i.v. P-aPD-1, time-course): increased distribution of P-aPD-1 at the tumor sites
FX activation activity [7]: dose-dependent FX activation activity
MFI of tumors, accumulation of PM-NP, increase versus tTF treatment [8]: 5.05 fold
coagulation in tumor tissues (H&E) ([9]; 24 h after three doses of i.v. injection, 1.25 mg/kg): initiated apparent coagulation
hemorrhage or thrombus in other major organs (H&E) ([9]; after 3 doses of i.v. injection): no obvious hemorrhage or thrombus in other major organs
hemorrhage / thrombosis ([9]; i.v. 1.25 mg/kg every other day for three times, data not shown): did not induce severe hemorrhage but could trigger thrombosis
median survival time [10]: 30 days
tumor growth inhibition [10]: negligible tumor-inhibiting activity
median survival time [11]: 27 days
fluorescence signals of P-aPD-1 in tumor tissues, increase versus tTF group ([12]; ex vivo, 24 h, protein p.t. 0.4 mg/kg): 1.87 fold
Rhodamine B-labeled P-aPD-1 fluorescence in resected tumors compared to BSA and tTF ([12]; p.t. injection): More fluorescence signals
accumulation of Cy5.5-labeled P-aPD-1 at tumor site (imaging) ([12]; protein p.t. 0.4 mg/kg then i.v. P-aPD-1, from 4 h post injection): strong tendency to accumulate at the tumor site
mean fluorescence intensity (MFI) of tumor tissues relative to tTF group [13]: 1.62 fold
tumor targeting ability, fluorescence signals at tumor site [13]: much stronger tumor targeting ability than tTF
